Three molecules from patent publication CN114989305A (BEIJING WISDOMAB BIOTECHNOLOGY CO LTD, dated 2022) can be followed below.

To fix the notation:
B1: MAb2 (antibody, V domains shown)
VH: EVQLVESGGGLVQPGGSLRLSCAASGFTFNDYTMDWVRQAPGKGLEWVADVNPNSGSSIYNERFKGRFTLSVDRSKNTLYLQMNSLRAEDTAVYYCARNLGPSFYFDYWGQGTLVTVSS
VL: DIQMTQSPSSLSASVGDRVTITCRASQNINNWLTWYQQKPGKAPKLLIYAASSRQTGVPSRFSGSGSGTDFTLTISSLQPEDFATYYCQQYAKLPVTFGQGTKVEIK
notes: The constant region of MAb2 is not known (human IgG1 or an IgG1 variant); also called 对照单克隆抗体; C6G9+L1A7 (inferred)
B2: BsAb7 (bispecific antibody)
chain 1: QVQLVESGGGVVQPGGSLRLSCAASGFVLRVNTVSWYRQAPGKQRELVALITSESNEYYDDSVKGRFTISRDNAKNTIYLHMNSLKPEDTGVYFCNFITTWGQGTQVTVSSGGGGSGGGGSGGGGSQVQLVESGGGVVQPGGSLRLSCAASGFVLRVNTVSWYRQAPGKQRELVALITSESNEYYDDSVKGRFTISRDNAKNTIYLHMNSLKPEDTGVYFCNFITTWGQGTQVTVSSDKTHTCPPCPAPESTRGPSVFLFPPKPKDTLMISRTPEVTCVVVDVSHEDPEVKFNWYVDGVEVHNAKTKPREEQYNSTYRVVSVLTVLHQDWLNGKEYKCKVSNKALPAPIEKTISKAKGQPREPQVCTLPPSRDELTKNQVSLSCAVKGFYPSDIAVEWESNGQPENNYKTTPPVLDSDGSFFLVSKLTVDKSRWQQGNVFSCSVMHEALHNHYTQKSLSLSPGK
chain 2: EVQLVESGGGLVQPGRSLRLSCAASGFTFNTYAMNWVRQAPGKGLEWVARIRSKYNNYATYYADSVKDRFTISRDDSKSIAYLQMNSLKTEDTAVYYCVRHGNFGNSYVSWFAYWGQGTLVTVSSASTKGPSVFPLAPSSKSTSGGTAALGCLVKDYFPEPVTVSWNSGALTSGVHTFPAVLQSSGLYSLSSVVTVPSSSLGTQTYICNVNHKPSNTKVDKKVEPKSCDKTHTCPPCPAPESTRGPSVFLFPPKPKDTLMISRTPEVTCVVVDVSHEDPEVKFNWYVDGVEVHNAKTKPREEQYNSTYRVVSVLTVLHQDWLNGKEYKCKVSNKALPAPIEKTISKAKGQPREPQVYTLPPCRDELTKNQVSLWCLVKGFYPSDIAVEWESNGQPENNYKTTPPVLDSDGSFFLYSKLTVDKSRWQQGNVFSCSVMHEALHNHYTQKSLSLSPGK
chain 3: QTVVTQEPSLTVSPGGTVTLTCRSSTGAVTTSNYANWVQQKPGQAPRGLIGGTNKRAPGVPARFSGSLLGGKAALTLSGVQPEDEAEYFCALWYSNLWVFGGGTKLTVLGQPKAAPSVTLFPPSSEELQANKATLVCLISDFYPGAVTVAWKADSSPVKAGVETTTPSKQSNNKYAASSYLSLTPEQWKSHRSYSCQVTHEGSTVEKTVAPTECS
B3: BsAb8 (bispecific antibody)
chain 1: EVQLVESGGGLVQPGGSLRLSCAASGRSFSSFQMGWFRQAPGKEREFVAASGWSGGPTYYWDSVIGRFTISTDNSKNTLYLQMNSLRAEDTAVYYCYEDRVLSGRPVRYWGQGTLVTVSSGGGGSGGGGSGGGGSEVQLVESGGGLVQPGGSLRLSCAASGRSFSSFQMGWFRQAPGKEREFVAASGWSGGPTYYWDSVIGRFTISTDNSKNTLYLQMNSLRAEDTAVYYCYEDRVLSGRPVRYWGQGTLVTVSSDKTHTCPPCPAPESTRGPSVFLFPPKPKDTLMISRTPEVTCVVVDVSHEDPEVKFNWYVDGVEVHNAKTKPREEQYNSTYRVVSVLTVLHQDWLNGKEYKCKVSNKALPAPIEKTISKAKGQPREPQVCTLPPSRDELTKNQVSLSCAVKGFYPSDIAVEWESNGQPENNYKTTPPVLDSDGSFFLVSKLTVDKSRWQQGNVFSCSVMHEALHNHYTQKSLSLSPGK
chain 2: EVQLVESGGGLVQPGRSLRLSCAASGFTFNTYAMNWVRQAPGKGLEWVARIRSKYNNYATYYADSVKDRFTISRDDSKSIAYLQMNSLKTEDTAVYYCVRHGNFGNSYVSWFAYWGQGTLVTVSSASTKGPSVFPLAPSSKSTSGGTAALGCLVKDYFPEPVTVSWNSGALTSGVHTFPAVLQSSGLYSLSSVVTVPSSSLGTQTYICNVNHKPSNTKVDKKVEPKSCDKTHTCPPCPAPESTRGPSVFLFPPKPKDTLMISRTPEVTCVVVDVSHEDPEVKFNWYVDGVEVHNAKTKPREEQYNSTYRVVSVLTVLHQDWLNGKEYKCKVSNKALPAPIEKTISKAKGQPREPQVYTLPPCRDELTKNQVSLWCLVKGFYPSDIAVEWESNGQPENNYKTTPPVLDSDGSFFLYSKLTVDKSRWQQGNVFSCSVMHEALHNHYTQKSLSLSPGK
chain 3: QTVVTQEPSLTVSPGGTVTLTCRSSTGAVTTSNYANWVQQKPGQAPRGLIGGTNKRAPGVPARFSGSLLGGKAALTLSGVQPEDEAEYFCALWYSNLWVFGGGTKLTVLGQPKAAPSVTLFPPSSEELQANKATLVCLISDFYPGAVTVAWKADSSPVKAGVETTTPSKQSNNKYAASSYLSLTPEQWKSHRSYSCQVTHEGSTVEKTVAPTECS

The target of this assay is T1, HER2-His (Homo sapiens (Human), UniProt P04626 23-510).
T1 construct: Recombinant protein made in HEK293 cells; also called 重组的HER2-His; 重组HER2胞外区D1D2D3部分
Nature of the assay: SPR (Biacore X100), antibody captured by anti-Fc on CM5 chip, HER2-His as analyte, single cycle.
B1 came in with a Kd of 5.31 nM. In turn, B2 showed a Kd of 6.79 nM. Molecule B3 came in with a Kd of 9.69 nM.
